Laboratory results taken from article PMC4212957, “The serodominant secreted effector protein of Salmonella, SseB, is a strong CD4 antigen containing an immunodominant epitope presented by diverse HLA class II alleles” (Immunology, 2014).

Tests used:
HLA-DRB1*07:01 = HLA-DRB1*07:01 (Homo sapiens, UniProt P01903+P01911, A100R/A102G/A103Q/D57E/D86V/E43K/F76Y/K127E/L162R/M171V/P40G/Q125H/Q99D/R33Q/R42Y/R54Q/S133A/S66F/T210M/V115G/Y107V/Y59L/Y89S); conditions: competitive ELISA; ratio IC50 of peptide / IC50 of reference peptide HA 306–318; lower = higher affinity; ratio 20 or less high, 20–100 moderate; three independent experiments
HLA-DRB1*12:02 = HLA-DRB1*12:02 (Homo sapiens, UniProt P01903+P01911, A100R/A169T/D57E/D86V/F55L/H45Y/I96F/K41T/L162R/M171V/P40S/Q125H/Q178H/Q39Y/Q99D/R42G/S66L/T262R/V114A/V67L/W38E/Y59H/Y61H/Y89S); experiment: Peptide/HLA-DR binding, competitive ELISA; conditions: ratio IC50 of peptide / IC50 of reference peptide TFR 141–155, lower = higher affinity, ratio 20 or less high, 20–100 moderate, three independent experiments
Protocol: (§1) HLA-DR heterodimers were purified from homozygous Epstein–Barr virus B-lymphoblastoid cell lines (HPA Culture Collections, Salisbury, UK) by affinity chromatography with the monomorphic HLA-DRα monoclonal antibody, L243.[29],[30] Binding of the SseB peptide panel to the HLA-DR molecules HLA-DRB1*01:01, 03:01, 04:01, 07:01, 09:01, 11:01, 12:02, 15:01, 15:02 was assessed by competitive ELISA, as previously described, using an automated workstation.[29],[30] We evaluated the peptide concentration able to prevent binding of 50% of the labelled peptide (IC50). Data were expressed as relative affinity: ratio of the IC50 of the peptide to the IC50 of the reference peptide, which is a high binder to the HLA class II molecule. Unlabelled forms of the biotinylated peptides were used as reference peptides.

HLA-DRB1*03:01 = target: T1, HLA-DRB1*03:01 (Homo sapiens, UniProt P01903+P01911, A100K/A102G/A103R/A169T/F55Y/I96L/K41T/L162R/M171V/P40S/Q125H/Q178H/Q39Y/R42S/S66N/T106N/T262R/W38E/Y61H); experiment: Peptide/HLA-DR binding, competitive ELISA; conditions: ratio IC50 of peptide / IC50 of reference peptide MT2-16, lower = higher affinity, ratio 20 or less high, 20–100 moderate, three independent experiments
T1 construct: HLA-DR heterodimers were purified from homozygous Epstein–Barr virus B-lymphoblastoid cell lines; host or cells: homozygous EBV B-lymphoblastoid cell line
Protocol: as §1

HLA-DRB1*15:01 = target: T2, HLA-DRB1*15:01 (Homo sapiens, UniProt P01903+P01911); experiment: Peptide/HLA-DR binding, competitive ELISA; conditions: ratio IC50 of peptide / IC50 of reference peptide A3 152–166, lower = higher affinity, ratio 20 or less high, 20–100 moderate, three independent experiments
T2 construct: HLA-DR heterodimers were purified from homozygous Epstein–Barr virus B-lymphoblastoid cell lines; host or cells: homozygous EBV B-lymphoblastoid cell line
Protocol: as §1

HLA-DRB1*15:02 = target: T3, HLA-DRB1*15:02 (Homo sapiens, UniProt P01903+P01911, V115G); experiment: Peptide/HLA-DR binding, competitive ELISA; conditions: ratio IC50 of peptide / IC50 of reference peptide TFR 607–620, lower = higher affinity, ratio 20 or less high, 20–100 moderate, three independent experiments
T3 construct: HLA-DR heterodimers were purified from homozygous Epstein–Barr virus B-lymphoblastoid cell lines; host or cells: homozygous EBV B-lymphoblastoid cell line
Protocol: as §1

HLA-DRB1*09:01 = target: T4, HLA-DRB1*09:01 (Homo sapiens, UniProt P01903+P01911, A100R/A103E/D57H/D86V/F55Y/F60I/F76Y/I96F/K127E/L162R/M171V/P40D/Q125H/Q99R/R33Q/R42F/S133A/S66N/T210M/V115G/W38K/Y107V/Y59G/Y89S); experiment: Peptide/HLA-DR binding, competitive ELISA; conditions: ratio IC50 of peptide / IC50 of reference peptide CTP 427–441, lower = higher affinity, ratio 20 or less high, 20–100 moderate, three independent experiments
T4 construct: HLA-DR heterodimers were purified from homozygous Epstein–Barr virus B-lymphoblastoid cell lines; host or cells: homozygous EBV B-lymphoblastoid cell line
Protocol: as §1

HLA-DRB1*11:01 = HLA-DRB1*11:01 (Homo sapiens, UniProt P01903+P01911, A100R/A169T/A87E/I96F/K41T/L162R/M171V/P40S/Q125H/Q178H/Q39Y/Q99D/R42S/S66Y/T262R/V115G/W38E); conditions: competitive ELISA; ratio IC50 of peptide / IC50 of reference peptide HA 306–318; lower = higher affinity; ratio 20 or less high, 20–100 moderate; three independent experiments
HLA-DRB1*01:01 = HLA-DRB1*01:01 (Homo sapiens, UniProt P01903+P01911, A100R/D57E/F55L/F60I/F76Y/I96L/L162R/M171V/P40L/Q125E/R42F/V115G/Y59C); conditions: competitive ELISA; ratio IC50 of peptide / IC50 of reference peptide HA 306–318; lower = higher affinity; ratio 20 or less high, 20–100 moderate; three independent experiments
HLA-DRB1*04:01 = HLA-DRB1*04:01 (Homo sapiens, UniProt P01903+P01911, A100K/A169T/F76Y/I96L/K127E/L162R/M171V/N62H/P40V/Q125Y/R42H/S133A/S149N/S66Y/V115G/V209L/W38E); conditions: competitive ELISA; ratio IC50 of peptide / IC50 of reference peptide HA 306–318; lower = higher affinity; ratio 20 or less high, 20–100 moderate; three independent experiments
[1] = test system: draining lymph node cells of HLA-DR4 transgenic mice; experiment: Murine IFN-γ ELISpot, HLA-DR4 transgenic mice primed with SseB; conditions: mouse, in vivo
Excerpt: Mice transgenic for HLA-DR1 (that is, HLA-DRA1*0101/HLA-DRB1*0101) and HLA-DR4 (that is, HLA-DRA1*0101/HLA-DRB1*0401)[24]–[26] were bred and housed in the Centre for Biological Services at the Hammersmith campus, Imperial College London, UK, in accordance with Home Office regulations and College ethics review. Both transgenic lines are maintained on a C57BL/6 background as homozygotes for knockout of murine MHC Class II H2-Aβ.[27]
HLA-DR1 or HLA-DR4 transgenic mice were primed, by subcutaneous injection into the footpad, with 25 μg of recombinant SseB protein administered as a 1 : 1 emulsion with TiterMax® Gold (CytRx Corporation, Los Angeles, CA). Ten days after priming, popliteal draining lymph nodes were harvested and stimulated, in triplicate, at 2 × 10^5 cells per well with 25 μg of SseB peptide or recombinant protein in pre-coated murine IFN-γ ELISpot plates (2BScientific, Upper Heyford, Oxfordshire, UK). Culture medium was RPMI-1640 containing 2 mM L-glutamine, 50 U/ml penicillin G, 50 μg/ml streptomycin sulphate, 50 μM β-mercaptoethanol and 10% fetal calf serum. Cells were cultured at 37° and in 5% CO2 for 72 hr before assay development using a biotinylated anti-IFN-γ antibody, a horseradish peroxidase detection antibody and TMB substrate (2BScientific). Developed plates were left to dry before spot counting using an AID ELISpot reader (Autoimmun Diagnostika GMBH). Positive epitopes for a given transgenic line were defined as those where more than half of assayed animals gave a greater number of spot-forming cells than 2 SD over the mean of the no protein/peptide control.
Fig 1 Definition of HLA-DR specific T-cell epitopes in DR1 and DR4 transgenic mice. (a) HLA-DR1 (n = 5) and (b) HLA-DR4 (n = 6) mice were footpad primed with ssEB protein in combination with TiterMax® Gold adjuvant. Draining lymph node (DLN) cells were assayed by ELISpot at day 10 for interferon-γ (IFN-γ) T-cell responses to ssEB peptides and protein. A peptide was defined as containing a T-cell epitope for DR1 or DR4 HLA molecules if more than half of the mice assayed gave a greater number of spot-forming cells than 2 SD over the mean of the no peptide/protein control. The 2 SD value for each transgenic line is shown by a dotted line.

Row | Substance | Relative binding affinity of peptide to HLA-DR molecules DRB1*0701 (HLA-DRB1*07:01) | Relative binding affinity of peptide to HLA-DR molecules DRB1*1202 (HLA-DRB1*12:02) | Relative binding affinity of peptide to HLA-DR molecules DRB1*0301 (HLA-DRB1*03:01) | Relative binding affinity of peptide to HLA-DR molecules DRB1*1501 (HLA-DRB1*15:01) | Relative binding affinity of peptide to HLA-DR molecules DRB1*1502 (HLA-DRB1*15:02) | Relative binding affinity of peptide to HLA-DR molecules DRB1*0901 (HLA-DRB1*09:01) | Relative binding affinity of peptide to HLA-DR molecules DRB1*1101 (HLA-DRB1*11:01) | Relative binding affinity of peptide to HLA-DR molecules DRB1*0101 (HLA-DRB1*01:01) | Relative binding affinity of peptide to HLA-DR molecules DRB1*0401 (HLA-DRB1*04:01) | IFN-γ ELISpot recall response / CD4 epitope in HLA-DR4 transgenic mice [1]
1 | 10: SseB overlapping library peptide, residues 91–110 (GDAKTKEEVPEDVIKYMRDN) [Peptide 10] | 87 | > 136 | > 119 | 58 | > 3 333 | > 689 | > 278 | > 4149 | > 145 | 
2 | 12: SseB overlapping library peptide, residues 111–130 (GILIDGMTIDDYMAKYGDHG) [Peptide 12] | 167 | 105 | 18 | 12 | 1 826 | > 689 | > 278 | > 4149 | > 145 | 
3 | 13: SseB overlapping library peptide, residues 121–140 (DYMAKYGDHGKLDKGGLQAI) [Peptide 13] | > 336 | > 136 | > 119 | 12 | 2 000 | > 689 | > 278 | 2958 | > 145 | 
4 | 14: SseB overlapping library peptide, residues 131–150 (KLDKGGLQAIKAALDNDANR) [Peptide 14] | 17 | 71 | > 119 | 10 | > 3 333 | 50 | > 278 | 335 | 13 | CD4 epitopes detected
5 | 15: SseB overlapping library peptide, residues 141–160 (KAALDNDANRNTDLMSQGQI) [Peptide 15] | > 336 | > 136 | 57 | > 270 | > 3 333 | > 689 | > 278 | > 4149 | > 145 | 
6 | 16: SseB overlapping library peptide, residues 151–170 (NTDLMSQGQITIQKMSQELN) [Peptide 16] | > 336 | 52 | > 119 | > 270 | > 3 333 | > 689 | > 278 | 964 | > 145 | 
7 | 17: SseB overlapping library peptide, residues 161–180 (TIQKMSQELNAVLTQLTGLI) [Peptide 17] | 8 | > 136 | > 119 | > 270 | > 3 333 | > 689 | > 278 | 18 | > 145 | 
8 | MSSGNILWGSQNPIVFKNSF [Peptide 1] | 6 | 3 | > 119 | 7 | > 3 333 | > 689 | > 278 | 447 | 12 | 
